Data set [1] addresses T1, Upf1-HD-His6 (Saccharomyces cerevisiae, UniProt P30771 221-851).
T1 sequence: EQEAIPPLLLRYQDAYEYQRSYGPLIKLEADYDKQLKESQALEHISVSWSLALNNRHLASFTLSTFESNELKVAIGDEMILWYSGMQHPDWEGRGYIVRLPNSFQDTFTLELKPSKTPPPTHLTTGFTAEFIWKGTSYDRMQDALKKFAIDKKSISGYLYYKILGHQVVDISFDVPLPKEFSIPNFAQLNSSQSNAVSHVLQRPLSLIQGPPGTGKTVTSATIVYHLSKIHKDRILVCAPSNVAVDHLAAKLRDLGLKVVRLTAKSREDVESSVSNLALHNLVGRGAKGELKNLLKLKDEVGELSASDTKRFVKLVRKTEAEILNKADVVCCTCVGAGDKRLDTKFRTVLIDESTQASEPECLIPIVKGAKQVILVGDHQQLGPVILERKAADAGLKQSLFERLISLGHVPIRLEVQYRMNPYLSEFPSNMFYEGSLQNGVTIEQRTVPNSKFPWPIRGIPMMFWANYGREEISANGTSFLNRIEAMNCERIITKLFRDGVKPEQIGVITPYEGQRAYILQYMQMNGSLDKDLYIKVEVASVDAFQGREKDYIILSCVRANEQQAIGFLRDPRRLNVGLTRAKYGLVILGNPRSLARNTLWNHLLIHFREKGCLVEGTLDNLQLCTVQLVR
The experiment in a line: ITC; no nucleotide; 5 mM Mg2+; ITC: 100 mM Bis-Tris pH 6.5, 133 mM NaCl, 5 mM MgCl2, 5 mM 2-mercaptoethanol, 20 C; protein 20-30 uM in cell titrated with 230-280 uM RNA. The conditions noted are these: protein: recombinant; tags: C-terminal His6; single strand. Background: Isothermal titration calorimetry measures the heat released or taken up as one component is titrated into another.

The target in data set [2] is T2, His6-ZZ-Nmd4 FL (Saccharomyces cerevisiae, UniProt Q12129 1-218).
T2 sequence: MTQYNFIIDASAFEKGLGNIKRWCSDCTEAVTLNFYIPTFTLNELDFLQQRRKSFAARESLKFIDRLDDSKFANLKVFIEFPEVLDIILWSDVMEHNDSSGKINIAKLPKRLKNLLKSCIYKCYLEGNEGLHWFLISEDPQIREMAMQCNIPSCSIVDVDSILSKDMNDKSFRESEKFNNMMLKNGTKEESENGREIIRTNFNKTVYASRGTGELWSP
The experiment in a line: ITC; 5 mM Mg2+; ITC: 100 mM Bis-Tris pH 6.5, 133 mM NaCl, 5 mM MgCl2, 5 mM 2-mercaptoethanol, 20 C; protein 20-30 uM in cell titrated with 230-280 uM RNA. The conditions noted are these: protein: recombinant; tags: N-terminal His6-ZZ (3C cleavable, kept for ITC); single strand.

The target of data set [3] is T3, His6-ZZ-Nmd4 FL;Upf1-HD-His6 (Saccharomyces cerevisiae;Saccharomyces …, UniProt Q12129;P30771 1-218;221-851, |).
T3 sequence 1: T2 sequence
T3 sequence 2: T1 sequence
The experiment in a line: ITC; preformed Nmd4/Upf1-HD complex; no nucleotide; 5 mM Mg2+; n 0.47; ITC: 100 mM Bis-Tris pH 6.5, 133 mM NaCl, 5 mM MgCl2, 5 mM 2-mercaptoethanol, 20 C; protein 20-30 uM in cell titrated with 230-280 uM RNA. The conditions noted are these: protein: recombinant;recombinant; tags: N-terminal His6-ZZ (3C cleavable, kept for ITC);C-terminal His6; copies: 1;1; single strand.

The target of data set [4] is T4, Upf1-HD-His6 (S. cerevisiae Upf1 helicase domain, residues 221 to 851) (S. cerevisiae, UniProt P30771 221-851).
T4 construct: Upf1, S. cerevisiae, helicase domain, residues 221 to 851; Used in ITC and, by the buffer D200 preparation, in the ATPase assays; also called yeast Upf1 helicase domain; source: E. coli BL21 (DE3) Gold, purified (TALON, HiTrap Heparin, S200 SEC); not shown: His6, C-terminal, kept
T4 sequence (looked up): T1 sequence
Kind of data set: ITC; His6-ZZ-Nmd4 proteins (260 μM full-length and « arm », 330 μM PIN) or His6-ZZ (277 μM) injected into Upf1-HD-His6 (30 to 35 μM); 20°C; 100 mM Bis-Tris pH 6.5, 200 mM NaCl, 5 mM MgCl2, 5 mM 2-mercaptoethanol; one-binding-site model. The conditions noted are these: both partners purified.

Usually Kd stands for the constant that tells how readily two partners part at equilibrium. Regarding UUUUUUUUUUUUUUUUUUUUUUUUUUUUUU (ssRNA) [RNA poly(U)30], the dissociation constant Kd in data set [1] came to 1030 ± 280 nM; in data set [2] it was 8100 ± 2950 nM; in data set [3] it was 440 ± 210 nM.

B1: His6-ZZ-Nmd4 « arm » (residues 168 to 218) (domain or fragment, S. cerevisiae, UniProt Q12129 168-218, looked up)
chain: NDKSFRESEKFNNMMLKNGTKEESENGREIIRTNFNKTVYASRGTGELWSP
notes: Nmd4, S. cerevisiae, C-terminal « arm », residues 168 to 218; also called « arm » region; source: E. coli BL21 (DE3) Gold, purified; not shown: His6, N-terminal, kept; ZZ (tandem Z-domain of S. aureus protein A), N-terminal, kept
By stoichiometry N is commonly meant the number of molecules, sites or subunits per partner or assembly. As to B1, in data set [4], binding was put at a Kd of 1960 nM, the dH was -12.4 kcal/mol and the “stoichiometry N” value amounted to 0.98.

B2: His6-ZZ-Nmd4 full-length protein (S. cerevisiae) (natural protein, UniProt Q12129 1-218, looked up)
chain: T2 sequence
notes: also called His6-ZZ-Nmd4 FL; full-length Nmd4; source: E. coli BL21 (DE3) Gold, purified (Ni-NTA, HiTrap Heparin, S75 SEC); not shown: His6, N-terminal, kept; ZZ (tandem Z-domain of S. aureus protein A), N-terminal, kept
As for B2, in data set [4], binding was put at a Kd of 2100 nM, the dH is -14.8 kcal/mol and the “stoichiometry N” value came to 1.08.

Values taken from PMC11463774, “Structure of the Nmd4-Upf1 complex supports conservation of the nonsense-mediated mRNA decay pathway between yeast and humans” (PLOS Biology, 2024).
